Test results from article PMC9482650, “Quantitative fragmentomics allow affinity mapping of interactomes” (Nature Communications, 2022).

T1: SHANK1, Q9Y566
T1 sequence (Q9Y566 658-767, limits assumed, looked up): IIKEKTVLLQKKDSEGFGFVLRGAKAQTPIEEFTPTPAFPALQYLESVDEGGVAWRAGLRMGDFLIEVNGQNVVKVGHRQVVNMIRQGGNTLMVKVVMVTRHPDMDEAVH

T2: PDZRN3_1, Q9UPQ7
T2 sequence (Q9UPQ7 244-349, limits assumed, looked up): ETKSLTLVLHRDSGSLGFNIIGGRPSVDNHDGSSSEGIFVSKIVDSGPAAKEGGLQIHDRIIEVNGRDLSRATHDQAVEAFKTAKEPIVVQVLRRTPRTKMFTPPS

T3: PARD3B_1, Q8TEW8
T3 sequence (Q8TEW8 196-299, limits assumed, looked up): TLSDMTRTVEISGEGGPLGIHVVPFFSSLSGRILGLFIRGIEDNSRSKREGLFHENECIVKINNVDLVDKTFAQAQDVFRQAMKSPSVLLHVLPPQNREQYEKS

T4: SNTB1, Q13884
T4 sequence (Q13884 107-205, limits assumed, looked up): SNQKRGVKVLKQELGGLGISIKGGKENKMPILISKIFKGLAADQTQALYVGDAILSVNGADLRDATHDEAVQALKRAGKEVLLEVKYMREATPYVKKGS

T5: GRIP1_2, Q9Y3R0
T5 sequence (Q9Y3R0 145-248, limits assumed, looked up): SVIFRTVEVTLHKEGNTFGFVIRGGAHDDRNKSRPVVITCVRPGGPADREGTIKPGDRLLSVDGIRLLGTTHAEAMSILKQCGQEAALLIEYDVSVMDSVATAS

T6: TX1BP3, O14907
T6 sequence (O14907 10-122, limits assumed, looked up): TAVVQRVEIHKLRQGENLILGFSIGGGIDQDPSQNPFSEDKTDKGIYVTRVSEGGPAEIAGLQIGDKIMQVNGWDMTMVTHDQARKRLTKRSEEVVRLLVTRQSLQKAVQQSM

T7: DFNB31_2, Q9P202
T7 sequence (Q9P202 274-371, limits assumed, looked up): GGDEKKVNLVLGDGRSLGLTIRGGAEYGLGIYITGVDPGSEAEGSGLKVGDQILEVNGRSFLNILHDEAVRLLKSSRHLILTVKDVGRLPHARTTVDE

T8: ARHGAP21, Q5T5U3
T8 sequence (Q5T5U3 45-169, limits assumed, looked up): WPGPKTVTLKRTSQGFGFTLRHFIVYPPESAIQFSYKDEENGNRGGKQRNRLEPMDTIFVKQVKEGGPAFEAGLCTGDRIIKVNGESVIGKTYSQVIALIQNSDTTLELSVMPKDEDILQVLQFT

T9: HTRA4, P83105
T9 sequence (P83105 378-476, limits assumed, looked up): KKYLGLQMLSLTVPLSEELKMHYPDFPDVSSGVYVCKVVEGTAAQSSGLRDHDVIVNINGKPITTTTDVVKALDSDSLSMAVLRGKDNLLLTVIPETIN

T10: MPP2, Q14168
T10 sequence (Q14168 180-250, limits assumed, looked up): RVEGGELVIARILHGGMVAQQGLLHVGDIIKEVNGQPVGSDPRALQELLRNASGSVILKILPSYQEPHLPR


Experiments:
Assay in all cases: holdup assay
Set-up in all cases: key: below the threshold = too weak to quantify, mostly under pKd 3.1 to 4
Conditions in all cases: plain residues with an end cap or a label only (N-terminal biotin on a linker: ado-ado)
FRMPD2_2, Q68DX3 = molecular target: FRMPD2_2, Q68DX3
SHANK1, Q9Y566 = molecular target: T1, SHANK1, Q9Y566
MAGI2_5, Q86UL8 = molecular target: MAGI2_5, Q86UL8
GRASP, Q7Z6J2 = molecular target: GRASP, Q7Z6J2
PDZRN3_1, Q9UPQ7 = molecular target: T2, PDZRN3_1, Q9UPQ7
PARD3B_1, Q8TEW8 = molecular target: T3, PARD3B_1, Q8TEW8
SNTB1, Q13884 = molecular target: T4, SNTB1, Q13884
NHERF2_2, Q15599 = molecular target: NHERF2_2, Q15599
GRIP1_2, Q9Y3R0 = molecular target: T5, GRIP1_2, Q9Y3R0
TX1BP3, O14907 = molecular target: T6, TX1BP3, O14907
DFNB31_2, Q9P202 = molecular target: T7, DFNB31_2, Q9P202
Inadl_3, Q8NI35 = molecular target: Inadl_3, Q8NI35
ARHGAP21, Q5T5U3 = molecular target: T8, ARHGAP21, Q5T5U3
GOPC, Q9HD26 = molecular target: GOPC, Q9HD26
MAGI3_2, Q5TCQ9 = molecular target: MAGI3_2, Q5TCQ9
HTRA4, P83105 = molecular target: T9, HTRA4, P83105
Inadl_4, Q8NI35 = molecular target: Inadl_4, Q8NI35
IL16_4, Q14005 = molecular target: IL16_4, Q14005
LAP2, Q96RT1 = molecular target: LAP2, Q96RT1
MPP2, Q14168 = molecular target: T10, MPP2, Q14168
MAGI1_1, Q96QZ7 = molecular target: MAGI1_1, Q96QZ7
DLG2_2, Q15700 = molecular target: DLG2_2, Q15700
GRIP2_3, Q9C0E4 = molecular target: GRIP2_3, Q9C0E4
HTRA2, O43464 = molecular target: HTRA2, O43464
PARD3_3, Q8TEW0 = molecular target: PARD3_3, Q8TEW0
DLG5_1, Q8TDM6 = molecular target: DLG5_1, Q8TDM6
Chain of DLG5_1, Q8TDM6 (Q8TDM6 617-713): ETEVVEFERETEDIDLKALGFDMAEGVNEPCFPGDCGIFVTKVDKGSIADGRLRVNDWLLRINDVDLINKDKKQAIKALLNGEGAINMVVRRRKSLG

Chain of Inadl_4, Q8NI35 (Q8NI35 547-651): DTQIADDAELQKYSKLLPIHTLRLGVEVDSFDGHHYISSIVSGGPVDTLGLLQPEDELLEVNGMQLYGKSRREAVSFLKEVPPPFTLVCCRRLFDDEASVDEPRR
Chain of MAGI3_2, Q5TCQ9 (Q5TCQ9 398-503): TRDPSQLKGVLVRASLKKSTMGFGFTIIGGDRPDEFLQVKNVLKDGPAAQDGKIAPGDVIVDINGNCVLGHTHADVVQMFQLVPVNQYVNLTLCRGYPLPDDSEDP
Chain of GRIP2_3, Q9C0E4 (Q9C0E4 238-339): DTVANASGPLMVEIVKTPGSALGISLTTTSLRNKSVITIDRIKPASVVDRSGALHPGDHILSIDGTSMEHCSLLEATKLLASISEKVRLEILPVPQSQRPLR
Chain of DLG2_2, Q15700 (Q15700 189-283): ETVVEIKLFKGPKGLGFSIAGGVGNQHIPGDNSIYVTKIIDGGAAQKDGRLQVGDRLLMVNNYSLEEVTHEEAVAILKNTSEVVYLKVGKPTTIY
Chain of IL16_4, Q14005 (Q14005 1229-1329): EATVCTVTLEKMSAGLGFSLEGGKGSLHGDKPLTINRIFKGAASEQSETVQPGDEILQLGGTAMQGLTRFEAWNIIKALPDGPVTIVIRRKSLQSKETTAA
Chain of Inadl_3, Q8NI35 (Q8NI35 359-469): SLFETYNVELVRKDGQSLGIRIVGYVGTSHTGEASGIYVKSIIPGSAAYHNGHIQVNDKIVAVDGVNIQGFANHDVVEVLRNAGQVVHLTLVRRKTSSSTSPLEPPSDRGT
Chain of PARD3_3, Q8TEW0 (Q8TEW0 582-685): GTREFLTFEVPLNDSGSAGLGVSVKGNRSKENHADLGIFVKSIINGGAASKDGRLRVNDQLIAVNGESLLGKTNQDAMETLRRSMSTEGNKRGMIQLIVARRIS
Chain of MAGI1_1, Q96QZ7 (Q96QZ7 1-106): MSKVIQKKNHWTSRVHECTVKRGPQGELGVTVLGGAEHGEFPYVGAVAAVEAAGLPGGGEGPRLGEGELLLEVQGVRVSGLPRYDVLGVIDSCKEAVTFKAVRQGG
Chain of FRMPD2_2, Q68DX3 (Q68DX3 944-1038): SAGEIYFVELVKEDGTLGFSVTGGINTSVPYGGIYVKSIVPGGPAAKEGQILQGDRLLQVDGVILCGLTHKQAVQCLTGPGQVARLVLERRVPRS
Chain of GRASP, Q7Z6J2 (Q7Z6J2 96-193): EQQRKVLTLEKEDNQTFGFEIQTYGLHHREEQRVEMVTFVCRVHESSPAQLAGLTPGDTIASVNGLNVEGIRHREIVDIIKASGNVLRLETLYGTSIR
Chain of LAP2, Q96RT1 (Q96RT1 other isoform, or with tags, fused parts or gaps): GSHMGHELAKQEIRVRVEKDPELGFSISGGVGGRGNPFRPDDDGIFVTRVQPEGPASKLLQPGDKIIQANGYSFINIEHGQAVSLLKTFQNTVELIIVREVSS
Chain of MAGI2_5, Q86UL8 (Q86UL8 915-1017): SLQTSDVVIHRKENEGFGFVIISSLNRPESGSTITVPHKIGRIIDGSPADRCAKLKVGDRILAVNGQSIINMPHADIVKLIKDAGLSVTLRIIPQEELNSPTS
Chain of NHERF2_2, Q15599 (Q15599 142-238): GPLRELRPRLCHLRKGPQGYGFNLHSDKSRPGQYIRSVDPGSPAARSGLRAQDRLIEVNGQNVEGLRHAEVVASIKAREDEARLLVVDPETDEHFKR
Chain of HTRA2, O43464 (O43464 355-458): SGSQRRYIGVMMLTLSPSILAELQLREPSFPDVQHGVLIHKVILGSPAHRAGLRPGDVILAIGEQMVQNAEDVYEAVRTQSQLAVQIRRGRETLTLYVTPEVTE

pKd (FRMPD2_2, Q68DX3)	pKd (SHANK1, Q9Y566)	pKd (MAGI2_5, Q86UL8)	pKd (GRASP, Q7Z6J2)	pKd (PDZRN3_1, Q9UPQ7)	pKd (PARD3B_1, Q8TEW8)	pKd (SNTB1, Q13884)	pKd (NHERF2_2, Q15599)	pKd (GRIP1_2, Q9Y3R0)	pKd (TX1BP3, O14907)	pKd (DFNB31_2, Q9P202)	pKd (Inadl_3, Q8NI35)	pKd (ARHGAP21, Q5T5U3)	pKd (GOPC, Q9HD26)	pKd (MAGI3_2, Q5TCQ9)	pKd (HTRA4, P83105)	pKd (Inadl_4, Q8NI35)	pKd (IL16_4, Q14005)	pKd (LAP2, Q96RT1)	pKd (MPP2, Q14168)	Binder	other results
below the threshold	below the threshold	below the threshold	below the threshold	below the threshold	4.3	3.68	below the threshold	below the threshold	below the threshold	below the threshold	4.33	below the threshold	below the threshold	below the threshold	below the threshold	below the threshold	below the threshold	below the threshold	below the threshold	EDLEDEWEVI [TECPR2, O15040]	pKd (MAGI1_1, Q96QZ7): below the threshold; pKd (DLG2_2, Q15700): below the threshold; pKd (GRIP2_3, Q9C0E4): below the threshold; pKd (HTRA2, O43464): below the threshold; pKd (PARD3_3, Q8TEW0): 5.6; pKd (DLG5_1, Q8TDM6): below the threshold
below the threshold	below the threshold	3.73	below the threshold	below the threshold	3.67	3.59	3.59	below the threshold	4.04	below the threshold	below the threshold	below the threshold	below the threshold	below the threshold	below the threshold	below the threshold	below the threshold	below the threshold	below the threshold	QLSFNTDTLC [ABCA2, Q9BZC7]	pKd (MAGI1_1, Q96QZ7): below the threshold; pKd (DLG2_2, Q15700): below the threshold; pKd (GRIP2_3, Q9C0E4): below the threshold; pKd (HTRA2, O43464): below the threshold; pKd (PARD3_3, Q8TEW0): below the threshold; pKd (DLG5_1, Q8TDM6): below the threshold
